Data published in article PMC10397247.
One block for each binder: values may come before it.

How the values were obtained:
4H2774-AA = molecular target: T1, 4H2774-AA; test: two-hybrid library CCmax; details: mean of both orientations;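 further: natural log of median RNA to DNA barcode read ratio; higher means stronger binding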
T1 chain: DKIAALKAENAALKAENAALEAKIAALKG

4H63-AA = molecular target: T2, 4H63-AA; test: two-hybrid library CCmax; details: mean of both orientations;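 further: natural log of median RNA to DNA barcode read ratio; higher means stronger binding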
T2 chain: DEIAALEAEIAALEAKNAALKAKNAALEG

4H2903-AA = molecular target: T3, 4H2903-AA; test: two-hybrid library CCmax; details: mean of both orientations;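 further: natural log of median RNA to DNA barcode read ratio; higher means stronger binding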
T3 chain: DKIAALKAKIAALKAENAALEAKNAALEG

4H2947-AA = molecular target: T4, 4H2947-AA; test: two-hybrid library CCmax; details: mean of both orientations;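 further: natural log of median RNA to DNA barcode read ratio; higher means stronger binding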
T4 chain: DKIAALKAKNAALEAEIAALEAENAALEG

4H2961-AA = molecular target: T5, 4H2961-AA; test: two-hybrid library CCmax; details: mean of both orientations
T5 chain: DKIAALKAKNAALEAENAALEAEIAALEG

4H2621-AA = molecular target: T6, 4H2621-AA; test: two-hybrid library CCmax; details: mean of both orientations
T6 chain: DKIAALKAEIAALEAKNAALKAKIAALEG

4H446-AA = molecular target: T7, 4H446-AA; test: two-hybrid library CCmax; details: mean of both orientations
T7 chain: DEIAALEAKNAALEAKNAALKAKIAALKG

4H2604-AA = molecular target: T8, 4H2604-AA; test: two-hybrid library CCmax; details: mean of both orientations
T8 chain: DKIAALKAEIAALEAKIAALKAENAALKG

4H3974-AA = molecular target: T9, 4H3974-AA; test: two-hybrid library CCmax; details: mean of both orientations
T9 chain: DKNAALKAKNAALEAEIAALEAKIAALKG

4H341-AA = molecular target: T10, 4H341-AA; test: two-hybrid library CCmax; details: mean of both orientations
T10 chain: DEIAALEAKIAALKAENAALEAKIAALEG

4H432-AA = molecular target: T11, 4H432-AA; test: two-hybrid library CCmax; details: mean of both orientations
T11 chain: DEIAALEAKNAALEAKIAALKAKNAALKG

4H249-AA = molecular target: T12, 4H249-AA; test: two-hybrid library CCmax; details: mean of both orientations
T12 chain: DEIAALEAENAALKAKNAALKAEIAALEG

4H235-AA = molecular target: T13, 4H235-AA; test: two-hybrid library CCmax; details: mean of both orientations
T13 chain: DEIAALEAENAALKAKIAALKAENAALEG

4H3777-AA = molecular target: T14, 4H3777-AA; test: two-hybrid library CCmax; details: mean of both orientations
T14 chain: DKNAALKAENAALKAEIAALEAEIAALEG

4H3049-AA = molecular target: T15, 4H3049-AA; test: two-hybrid library CCmax; details: mean of both orientations
T15 chain: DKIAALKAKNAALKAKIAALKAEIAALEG

4H3915-AA = molecular target: T16, 4H3915-AA; test: two-hybrid library CCmax; details: mean of both orientations
T16 chain: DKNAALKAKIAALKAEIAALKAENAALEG

4H1593-AA = molecular target: T17, 4H1593-AA; test: two-hybrid library CCmax
T17 chain: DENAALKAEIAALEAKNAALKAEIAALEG

4H2580-AA = molecular target: T18, 4H2580-AA; test: two-hybrid library CCmax; details: mean of both orientations
T18 chain: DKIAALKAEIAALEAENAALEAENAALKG

4H380-AA = molecular target: T19, 4H380-AA; test: two-hybrid library CCmax; details: mean of both orientations
T19 chain: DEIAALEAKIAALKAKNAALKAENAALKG

4H3449-AA = molecular target: T20, 4H3449-AA; test: two-hybrid library CCmax; details: mean of both orientations
T20 chain: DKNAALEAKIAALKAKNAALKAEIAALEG

4H3619-AA = molecular target: T21, 4H3619-AA; test: two-hybrid library CCmax; details: mean of both orientations
T21 chain: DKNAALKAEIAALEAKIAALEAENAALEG

4H3629-AA = molecular target: T22, 4H3629-AA; test: two-hybrid library CCmax; details: mean of both orientations
T22 chain: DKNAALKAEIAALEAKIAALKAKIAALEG

4H3094-AA = molecular target: T23, 4H3094-AA; test: two-hybrid library CCmax; details: mean of both orientations
T23 chain: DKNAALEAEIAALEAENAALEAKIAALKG

4H2760-AA = molecular target: T24, 4H2760-AA; test: two-hybrid library CCmax; details: mean of both orientations
T24 chain: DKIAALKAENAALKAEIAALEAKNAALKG

4H324-AA = molecular target: T25, 4H324-AA; test: two-hybrid library CCmax; details: mean of both orientations
T25 chain: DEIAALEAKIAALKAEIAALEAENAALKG

4H1878-AA = molecular target: T26, 4H1878-AA; test: two-hybrid library CCmax; details: mean of both orientations
T26 chain: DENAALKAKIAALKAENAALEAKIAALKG

4H496-bA = molecular target: T27, 4H496-bA; test: two-hybrid library CCNG1
T27 chain: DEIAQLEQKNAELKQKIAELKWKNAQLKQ

4H918-bN = molecular target: T28, 4H918-bN; test: two-hybrid library CCNG1
T28 chain: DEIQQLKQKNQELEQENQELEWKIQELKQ

4H3632-bA = molecular target: T29, 4H3632-bA; test: two-hybrid library CCNG1
T29 chain: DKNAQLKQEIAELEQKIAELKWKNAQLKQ

4H48-bA = molecular target: T30, 4H48-bA; test: two-hybrid library CCNG1
T30 chain: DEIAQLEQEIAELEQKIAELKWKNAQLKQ

4H342-bA = molecular target: T31, 4H342-bA; test: two-hybrid library CCNG1
T31 chain: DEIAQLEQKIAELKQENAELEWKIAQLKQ

O3 = molecular target: T32, O3; test: two-hybrid library CCNG1
T32 chain: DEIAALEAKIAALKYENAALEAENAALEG

4H491-bA = molecular target: T33, 4H491-bA; test: two-hybrid library CCNG1
T33 chain: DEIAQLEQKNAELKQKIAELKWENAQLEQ

interaction score (4H2774-AA): -0.0172
interaction score (4H63-AA): -1.97
interaction score (4H2903-AA): -0.456
interaction score (4H2947-AA): -1.37
interaction score (4H2961-AA): -1.89
interaction score (4H2621-AA): -0.899
interaction score (4H446-AA): -1.84
interaction score (4H2604-AA): 0.383
interaction score (4H3974-AA): -1.15
interaction score (4H341-AA): 2.13
interaction score (4H432-AA): -0.391
interaction score (4H249-AA): -1.77
interaction score (4H235-AA): 0.603
interaction score (4H3777-AA): -1.54
interaction score (4H3049-AA): -0.661
interaction score (4H3915-AA): -1.62
interaction score (4H1593-AA): -1.04
interaction score (4H2580-AA): -0.97
interaction score (4H380-AA): -1.5
interaction score (4H3449-AA): -1.62
interaction score (4H3619-AA): -1.38
interaction score (4H3629-AA): -0.594
interaction score (4H3094-AA): 1.88
interaction score (4H2760-AA): -0.517
interaction score (4H324-AA): -1.58
interaction score (4H1878-AA): 2.3
B1: 4H1593-AA (peptide)
chain: DENAALKAEIAALEAKNAALKAEIAALEG

interaction score (4H496-bA): 2.13
interaction score (4H918-bN): -0.0267
interaction score (4H3632-bA): 0.725
interaction score (4H48-bA): 0.0458
interaction score (4H342-bA): 1.64
interaction score (O3): -1.6
interaction score (4H491-bA): 1.5
B2: 4H342-bA (peptide)
chain: DEIAQLEQKIAELKQENAELEWKIAQLKQ
